Results reported in patent US11041003B2, “Crystal structure of Staphylococcus aureus clumping factor A in complex with fibrinogen derived peptide and uses thereof” (THE TEXAS A&M UNIVERSITY SYSTEM, priority 2008, dated 2021).
Where a SMILES comes first, the peptide text is derived from it.

Key:
αIIbβ3 = αIIbβ3 (Homo sapiens, UniProt P05106+P08514); test: Integrin (αIIbβ3) inhibition assay: inhibition of full length Fg binding to αIIbβ3; settings: 10 nM full length Fg, inhibitory ELISA type assay
Experimental: For αIIbβ3 inhibition assay. αIIbβ3Immulon 4HBX Microtiter 96-well plates (Thermo) were coated with αIIbβ3 ([…]) in TBS (25 mM Tris, 3 mM KCl, 140 mM NaCl, pH 7.4) over night at 4° C. The wells were washed with TBS containing 0.05% (w/v) Tween-20 (TBST). After blocking with 3% (w/v) BSA dissolved in TBS for 1 h at RT, 10 nM of full length Fg was applied in the presence of either WT γ^1-17, γ^1-17D16A or γ^1-17K12A peptides and plates were incubated at RT for another hour. The bound full length Fg was then detected by goat anti human Fg (1:1000 dilution, Sigma) antibody followed by horseradish peroxidase-conjugated rabbit anti-goat IgG antibody (1:1000 dilution, Cappel). After incubation with 0.4 mg/ml of substrate, o-phenylenediamine dihydrochloride (OPD, Sigma) dissolved in phosphate-citrate buffer, pH 5.0, bound antibodies were determined in an ELISA reader at 450 nm. The proteins, antibodies and peptides were diluted in TBST containing 1% (w/v) BSA, 2 mM MgCl2, 1 mM of CaCl2 and MnCl2.
To examine this possibility, the ability of the synthesized Fg WT g^1-17 and mutated peptides (g^1-17D16A and g^1-17K12A) to inhibit full length Fg binding to αIIbβ3 was analyzed by inhibitory ELISA type assay (FIG. 6).

GST-Fg γ^1-17 = target: T1, GST-Fg γ^1-17 (Homo sapiens, UniProt P02679); test: ELISA-type binding of ClfA proteins to immobilized GST-Fg γ^1-17; settings: GST Fg γ^1-17 coated in microtiter wells; read-out: apparent Kd for GST-Fg γ^1-17
T1 construct: made in house; host or cells: Escherichia coli

Compound | inhibition of full length Fg binding to αIIbβ3 (αIIbβ3) | inhibition of full length Fg binding to αIIbβ3 (αIIbβ3; listed as Fg-γ^1-17) | inhibition of full length Fg binding to αIIbβ3 (αIIbβ3; listed as γ^1-17K12A) | Kd (GST-Fg γ^1-17)
CC(C)C[C@H](NC(=O)[C@H](Cc1c[nH]cn1)NC(=O)[C@H](Cc1c[nH]cn1)NC(=O)[C@H](CCC(N)=O)NC(=O)[C@H](CCC(N)=O)NC(=O)CNC(=O)[C@H](CCC(=O)O)NC(=O)CN)C(=O)NCC(=O)NCC(=O)N[C@@H](C)C(=O)N[C@@H](CCCCN)C(=O)N[C@@H](CCC(N)=O)C(=O)N[C@@H](C)C(=O)NCC(=O)N[C@@H](CC(=O)O)C(=O)N[C@H](C(=O)O)C(C)C [g^1-17] (H-GEGQQHHLGGAKQAGDV-OH; N-terminus and C-terminus assumed) | completely inhibited | inhibits |  | 
g^1-17K12A: Fg γ 395-411 peptide with Lys12→Ala (GEGQQHHLGGAAQAGDV) | weakly inhibited |  | very little inhibitory effect | 
ClfA229-545: recombinant His-tag ClfA construct, residues 229-545 of SEQ ID NO:35, composed only of the N2 N3 domains |  |  |  | 222 nM
